The values below come from PMC11324745.

In this data set the target is Polθ-hel (DNA polymerase theta helicase domain) (human, UniProt O75417 1-894). Put plainly: EMSA. A general note: In EMSA bound probe runs differently from free probe, usually more slowly.
Polθ-hel (DNA polymerase theta helicase domain), sequence (O75417 1-894): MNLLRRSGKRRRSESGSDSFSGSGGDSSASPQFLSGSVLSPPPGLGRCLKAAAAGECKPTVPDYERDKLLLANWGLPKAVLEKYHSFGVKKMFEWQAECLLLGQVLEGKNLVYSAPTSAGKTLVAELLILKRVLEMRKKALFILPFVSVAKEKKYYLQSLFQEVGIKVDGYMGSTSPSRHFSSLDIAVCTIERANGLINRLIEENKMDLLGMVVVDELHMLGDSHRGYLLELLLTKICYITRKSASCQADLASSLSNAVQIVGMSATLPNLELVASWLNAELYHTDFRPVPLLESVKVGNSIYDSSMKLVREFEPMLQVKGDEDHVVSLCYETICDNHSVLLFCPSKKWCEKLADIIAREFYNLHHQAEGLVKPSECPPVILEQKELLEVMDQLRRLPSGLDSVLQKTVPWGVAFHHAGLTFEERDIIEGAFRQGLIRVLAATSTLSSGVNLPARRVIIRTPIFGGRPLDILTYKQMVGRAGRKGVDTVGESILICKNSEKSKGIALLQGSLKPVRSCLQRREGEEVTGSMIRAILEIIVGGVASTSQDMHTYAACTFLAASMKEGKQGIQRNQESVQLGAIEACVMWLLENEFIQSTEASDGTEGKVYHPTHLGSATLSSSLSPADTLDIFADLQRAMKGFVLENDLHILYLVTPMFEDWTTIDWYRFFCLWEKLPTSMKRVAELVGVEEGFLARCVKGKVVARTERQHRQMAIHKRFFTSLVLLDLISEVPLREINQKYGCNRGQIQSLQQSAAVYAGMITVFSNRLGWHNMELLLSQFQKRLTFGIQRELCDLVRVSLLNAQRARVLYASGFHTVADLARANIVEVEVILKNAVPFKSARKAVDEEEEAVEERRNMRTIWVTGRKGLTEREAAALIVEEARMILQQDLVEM

B1: ssDNA RP316 (ssDNA)
DNA: TTTTTTTTTTTTTTTTTTTTTTTTTTTTT
Consider B1, for which the binding result is “binds”.
